Where a chain is given by its changes, count along the chain named.
T1: GFP-9S library array, motif 4 ND N98P;D124P (synthetic construct, N98P;D124P)
T1 chain: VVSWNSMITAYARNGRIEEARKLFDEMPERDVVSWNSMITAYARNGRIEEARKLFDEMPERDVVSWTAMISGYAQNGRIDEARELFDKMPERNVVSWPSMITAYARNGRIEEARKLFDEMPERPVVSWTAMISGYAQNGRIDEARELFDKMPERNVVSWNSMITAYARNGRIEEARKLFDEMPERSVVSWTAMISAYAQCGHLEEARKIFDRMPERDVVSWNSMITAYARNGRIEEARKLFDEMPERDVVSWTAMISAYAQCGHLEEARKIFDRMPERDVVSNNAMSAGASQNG

T2: GFP-9S library array, motif 4 ND N98E;D124L (synthetic construct, N98E;D124L)
T2 chain: T1 chain with P98E, P124L

T3: GFP-9S library array, motif 4 ND N98P;D124H (synthetic construct, N98P;D124H)
T3 chain: T1 chain with P124H

T4: GFP-9S library array, motif 4 ND N98I;D124G (synthetic construct, N98I;D124G)
T4 chain: T1 chain with P98I, P124G

T5: GFP-9S library array, motif 4 ND N98F;D124G (synthetic construct, N98F;D124G)
T5 chain: T1 chain with P98F, P124G


What was measured:
Experiment in all cases: high-throughput RNA pulldown from lysate on Ni-NTA beads; HRP: 50 mM Tris pH 8, 150 mM NaCl, 1 mM beta-mercaptoethanol, 50 ug/ml BSA, 3 ug/ml yeast RNA, 0.5% heparin; ITC and FP: Tris pH 8, 200 mM KCl, 5% glycerol; MST: 50 mM Tris pH 8, 200 mM NaCl, 1 mM DTT, BSA, heparin, 0.05% Tween 20
Details in all cases: tags: N-terminal His-eGFP
[1] = target: T1, GFP-9S library array, motif 4 ND …
[2] = target: T2, GFP-9S library array, motif 4 ND …
[3] = target: T3, GFP-9S library array, motif 4 ND …
[4] = target: T4, GFP-9S library array, motif 4 ND …
[5] = target: T5, GFP-9S library array, motif 4 ND …

Binder | Kd ([1]; label: 5' Cy5) [nM] | Kd ([2]; label: 5' Cy5) [nM] | Kd ([3]; label: 5' Cy5) [nM] | Kd ([4]; label: 5' Cy5) [nM] | Kd ([5]; label: 5' Cy5) [nM] | Kd ([1]; label: 5' IRDye 800CW) [nM] | Kd ([2]; label: 5' IRDye 800CW) [nM] | Kd ([3]; label: 5' IRDye 800CW) [nM] | Kd ([4]; label: 5' IRDye 800CW) [nM] | Kd ([5]; label: 5' IRDye 800CW) [nM]
AUUAGACGUGA (ssRNA) [Cy5-rpoA-G] | 326 | 69 | 143 | 72 | 75.9 |  |  |  |  | 
AUUAAACGUGA (ssRNA) [IR-rpoA-A] |  |  |  |  |  | 1420 | 147 | 332 | 40.6 | 139
AUUAUACGUGA (ssRNA) [IR-rpoA-U] |  |  |  |  |  | 561 | 196 | 143 | 26.6 | 124
AUUACACGUGA (ssRNA) [Cy5-rpoA] | 273 | 63.1 | 94.4 | 69.2 | 74.1 |  |  |  |  | 

— article PMC8809517, “Cofactor-independent RNA editing by a synthetic S-type PPR protein”
